In US20240199757A1 (UNIVERSITY OF CHICAGO, published 2024):

T1: Full-length human NT5E (recombinant, in-house) (human, UniProt P21589 27-549)
T1 construct: also called hNT5E; hNT5EWT
T1 sequence: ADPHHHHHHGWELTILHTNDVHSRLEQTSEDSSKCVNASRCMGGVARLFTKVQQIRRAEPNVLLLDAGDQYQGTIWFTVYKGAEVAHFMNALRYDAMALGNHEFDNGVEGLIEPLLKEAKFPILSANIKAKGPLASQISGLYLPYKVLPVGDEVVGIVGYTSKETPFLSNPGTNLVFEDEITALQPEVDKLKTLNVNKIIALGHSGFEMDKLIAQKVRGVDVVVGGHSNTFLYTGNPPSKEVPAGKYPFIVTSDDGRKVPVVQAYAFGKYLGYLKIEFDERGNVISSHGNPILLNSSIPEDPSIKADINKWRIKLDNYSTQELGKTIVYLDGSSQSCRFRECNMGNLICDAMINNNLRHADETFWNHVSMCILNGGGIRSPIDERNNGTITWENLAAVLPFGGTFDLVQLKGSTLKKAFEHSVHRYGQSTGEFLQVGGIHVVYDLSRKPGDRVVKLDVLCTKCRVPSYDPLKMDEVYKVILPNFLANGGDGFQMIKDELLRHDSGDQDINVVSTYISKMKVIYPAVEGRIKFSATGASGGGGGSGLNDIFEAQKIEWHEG

T2: murine NT5E expressed on 4T1 cells (murine, UniProt Q61503 29-551)
T2 construct: whole, on cells; also called mouse NT5E-expressing 4T1 cells
T2 sequence (looked up): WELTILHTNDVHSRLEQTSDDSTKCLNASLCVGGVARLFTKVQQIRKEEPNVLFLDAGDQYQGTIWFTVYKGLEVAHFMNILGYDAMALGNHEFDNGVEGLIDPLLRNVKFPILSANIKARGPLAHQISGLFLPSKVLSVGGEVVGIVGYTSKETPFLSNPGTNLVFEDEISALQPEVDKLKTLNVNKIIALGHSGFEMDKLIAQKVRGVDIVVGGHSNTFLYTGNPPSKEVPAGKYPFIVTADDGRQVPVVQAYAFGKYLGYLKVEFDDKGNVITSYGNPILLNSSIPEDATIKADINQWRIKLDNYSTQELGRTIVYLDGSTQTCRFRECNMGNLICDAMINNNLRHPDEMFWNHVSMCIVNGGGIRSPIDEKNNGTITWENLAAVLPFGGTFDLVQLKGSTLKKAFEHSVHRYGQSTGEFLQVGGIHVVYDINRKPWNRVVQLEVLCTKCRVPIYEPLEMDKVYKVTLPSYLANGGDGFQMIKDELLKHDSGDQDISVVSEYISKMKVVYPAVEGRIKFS

B1: 1789 Fab (Fab, V domains shown)
VH: EVQLVESGGGLVQPGGSLRLSCAASGFNVSYSSIHWVRQAPGKGLEWVASISSSSGYTYYADSVKGRFTISADTSKNTAYLQMNSLRAEDTAVYYCARNYWGWYPFYYFAFDYWGQGTLVTV
VL: DIQMTQSPSSLSASVGDRVTITCRASQSVSSAVAWYQQKPGKAPKLLIYSASSLYSGVPSRFSGSRSGTDFTLTISSLQPEDFATYYCQQGWDYPITFGQGTKVEIKR
B2: 1789 IgG (antibody, V domains shown)
VH: EVQLVESGGGLVQPGGSLRLSCAASGFNVSYSSIHWVRQAPGKGLEWVASISSSSGYTYYADSVKGRFTISADTSKNTAYLQMNSLRAEDTAVYYCARNYWGWYPFYYFAFDYWGQGTLVTVSS
VL: B1 VL

Columns and labels:
[1] = molecular target: T1, Full-length human NT5E (recombinant, …); assay: SPR, His-captured NT5E, 1 mM ATP
Procedure: All SPR experiments were performed at 25° C. using MASS-1 (Bruker) instrument. hNT5E, mNT5E and cNT5E were immobilized onto a nitrilotriacetic acid (NTA) sensor chip via His-tag. For kinetic experiments, after ligand immobilization, 2-fold serial dilutions of the Fabs were injected. After double-reference subtraction data were analyzed with BiaEvaluation (GE Healthcare) or Sierra Analyser (Bruker) software. The experiments were carried in buffers in presence and absence of 1 mM ATP to compare the kinetic parameters of the Fabs binding to closed and open form of NT5E.

[2] = molecular target: T1, Full-length human NT5E (recombinant, …); assay: DSF thermal shift, 1.5-fold molar excess of Fab, no ATP (NT5E alone 49° C.)
Procedure: Thermal stability of samples was analyzed by differential scanning fluorimetry (DSF) using a real-time PCR instrument (Bio-Rad CFX384). Protein samples were mixed with 4× Sypro Orange at a final 4 μM concentration. For target/Fab complexes, 1.5-fold molar excess of Fab was used. All reactions were performed in triplicates in a 384-well plate. Thermal melting curves were monitored from 25° C. to 95° C. in steps of 0.5° C./30 s. Wavelengths of 490 and 575 nm were used for excitation and emission, respectively. The melting temperatures were inferred from the first derivative of the melting curves from the mean of triplicate runs using CFX software provided by the manufacturer.
TABLE 6 Summary of TM for hNT5EWT hNT5EDF, and hNT5E by differential scanning fluorimetry. […] Melting temperatures (TM) are for NT5E only and are represented by the mean of three replicates.

[3] = molecular target: T2, murine NT5E expressed on 4T1 cells; assay: flow cytometry on 4T1 cells, 1 mM ATP; +ATP (1 mM), 4T1 cells
Procedure: Human MDA-MB-231 cells and murine 4T1 cells were grown to 90% confluency, detached with 5 mM EDTA for 15 min at 37° C. and then resuspended in 37° C. lx PBS (#10010031, Gibco) supplemented with 1% FBS and 1OpM ZnCl2. Separate working buffers (WB) of PBS and 1% FBS with or without fixed nucleotide concentrations were used throughout all washing steps to maintain constant condition. In 96-well plates (#3799, Costar), 0.2×10⁶ cells were added per well. The plates were spun at 500×g for 5 min and the supernatant was removed. Anti-NT5E antibodies were diluted to the desired concentration in 100 μL WB, added to the cells and the plates were incubated for 20 min at 37° C. Plates were spun and cells were washed twice with WB then spun a second time. Cells were stained with 100 μL of secondary antibody (Alexa Fluor 647 AffiniPure Goat Anti-Human IgG, F(ab′)2 fragment specific, #109-605-006, Jackson, 1:200) dilution and plates were incubated for 20 min at 37° C. Cells were washed twice with WB then fixed on ice with WB supplemented with 0.5% PFA. Fixing solution was removed by centrifugation and cells were resuspended in cold 1× PBS. Samples were analyzed by flow cytometry using CytoFLEX (Beckman Coulter) and mean fluorescence intensity (MFI) data was extracted using FlowJo software. Resulting binding data was plotted using OriginLab.

Row | Binder | Kd [1] [nM] | koff [1] [s⁻¹] | kon [1] [M⁻¹ s⁻¹] | TM of NT5E in the presence of the Fab [2] [° C.] | EC50 [3] [nM]
1 | B1 | 42 | 0.0073 | 170000 | 48 | 
2 | B2 |  |  |  |  | 37
